Data taken from doi:10.1101/2021.03.24.436638.

Target: calnexin (simian (endogenous in COS7))
Assay: co-IP

Row | amount coimmunoprecipitated with CNX, percent of wild-type GlyT2 [%] | Binder
1 | 289 | GlyT2 A277T mutant (rat numbering; rat version of human A275T) (natural protein) MDCSAPKEMNKPPTNILEATVPGHRDSPRAPRTSPEQDLPAAAPAAAVQPPRVPRSASTGAQTFQSADARACEAQRPGVGFCKLSSPQAQATSAALRDLSEGHSAQANPPSGAAGAGNALHCKIPALRGPEEDENVSVGKGTLEHNNTPAVGWVNMSQSTVVLGTDGIASVLPGSVATTTIPEDEQGDENKARGNWSSKLDFILSMVGYAVGLGNVWRFPYLAFQNGGGAFLIPYLMMLALAGLPIFFLEVSLGQFASQGPVSVWKAIPALQGCGITMLIISVLIAIYYNVIICYTLFYLFASFVSVLPWGSCNNPWNTPECKDKTKLLLDSCVIGDHPKIQIKNSTFCMTAYPNLTMVNFTSQANKTFVSGSEEYFKYFVLKISAGIEYPGEIRWPLAFCLFLAWVIVYASLAKGIKTSGKVVYFTATFPYVVLVILLIRGVTLPGAGAGIWYFITPKWEKLTDATVWKDAATQIFFSLSAAWGGLITLSSYNKFHNNCYRDTLIVTCTNSATSIFAGFVIFSVIGFMANERKVNIENVADQGPGIAFVVYPEALTRLPLSPFWAIIFFLMLLTLGLDTMFATIETIVTSISDEFPKYLRTHKPVFTLGCCICFFIMGFPMITQGGIYMFQLVDTYAASYALVIIAIFELVGISYVYGLQRFCEDIEMMIGFQPNIFWKVCWAFVTPTILTFILCFSFYQWEPMTYGSYRYPNWSMVLGWLMLACSVIWIPIMFVIKMYLAPGRFIERLKLVCSPQPDWGPFLAQHRGERYKNMIDPLGTSSLGLKLPVKDLELGTQC
2 | 188 | GlyT2 Y707C mutant (rat numbering; rat version of human Y705C) (natural protein) MDCSAPKEMNKPPTNILEATVPGHRDSPRAPRTSPEQDLPAAAPAAAVQPPRVPRSASTGAQTFQSADARACEAQRPGVGFCKLSSPQAQATSAALRDLSEGHSAQANPPSGAAGAGNALHCKIPALRGPEEDENVSVGKGTLEHNNTPAVGWVNMSQSTVVLGTDGIASVLPGSVATTTIPEDEQGDENKARGNWSSKLDFILSMVGYAVGLGNVWRFPYLAFQNGGGAFLIPYLMMLALAGLPIFFLEVSLGQFASQGPVSVWKAIPALQGCGIAMLIISVLIAIYYNVIICYTLFYLFASFVSVLPWGSCNNPWNTPECKDKTKLLLDSCVIGDHPKIQIKNSTFCMTAYPNLTMVNFTSQANKTFVSGSEEYFKYFVLKISAGIEYPGEIRWPLAFCLFLAWVIVYASLAKGIKTSGKVVYFTATFPYVVLVILLIRGVTLPGAGAGIWYFITPKWEKLTDATVWKDAATQIFFSLSAAWGGLITLSSYNKFHNNCYRDTLIVTCTNSATSIFAGFVIFSVIGFMANERKVNIENVADQGPGIAFVVYPEALTRLPLSPFWAIIFFLMLLTLGLDTMFATIETIVTSISDEFPKYLRTHKPVFTLGCCICFFIMGFPMITQGGIYMFQLVDTYAASYALVIIAIFELVGISYVYGLQRFCEDIEMMIGFQPNIFWKVCWAFVTPTILTFILCFSFYQWEPMTCGSYRYPNWSMVLGWLMLACSVIWIPIMFVIKMYLAPGRFIERLKLVCSPQPDWGPFLAQHRGERYKNMIDPLGTSSLGLKLPVKDLELGTQC
